Data taken from patent publication US20050239710.

Biological target: T1, 19-mer (SEQ ID NO:11) cleavage domain peptide
T1 chain: PRCGNPDVANYNFFPRKPK

B1: Proenzyme pro-MMP-9 (protein)
chain: APRQRQSTLVLFPGDLRTNLTDRQLAEEYLYRYGYTRVAEMRGESKSLGPALLLLQKQLSLPETGELDSATLKAMRTPRCGVPDLGRFQTFEGDLKWHHHNITYWIQNYSEDLPRAVIDDAFARAFALWSAVTPLTFTRVYSRDADIVIQFGVAEHGDGYPFDGKDGLLAHAFPPGPGIQGDAHFDDDELWSLGKGVVVPTRFGNADGAACHFPFIFEGRSYSACTTDGRSDGLPWCSTTANYDTDDRFGFCPSERLYTQDGNADGKPCQFPFIFQGQSYSACTTDGRSDGYRWCATTANYDRDKLFGFCPTRADSTVMGGNSAGELCVFPFTFLGKEYSTCTSEGRGDGRLWCATTSNFDSDKKWGFCPDQGYSLFLVAAHEFGHALGLDHSSVPEALMYPMYRFTEGPPLHKDDVNGIRHLYGPRPEPEPRPPTTTTPQPTAPPTVCPTGPPTVHPSERPTAGPTGPPSAGPTGPPTAGPSTATTVPLSPVDDACNVNIFDAIAEIGNQLYLFKDGKYWRFSEGRGSRPQGPFLIADKWPALPRKLDSVFEERLSKKLFFFSGRQVWVYTGASVLGPRRLDKLGLGADVAQVTGALRSGRGKMLLFSGRRLWRFDVKAQMVDPRSASEVDRMFPGVPLDTHDVFQYREKAYFCQDRFYWRVSSRSELNQVDQVGYVTYDILQCPED
conversion of pro-MMP-9 into prodomain and active enzyme by stromilysin (HPLC splicing assay): Splicing can be inhibited in a dose dependent manner with micromolar 19-mer (SEQ ID NO:11) peptide.
